Source: article PMC10573690 (International Journal of Molecular Sciences, 2023)

T1: biotinylated EMPD-characteristic peptide (Homo sapiens, synthetic peptide of the …, biotin on the C-terminal lysine (K-biotin))
T1 construct: added C-terminal lysine that carries the biotin; Held on streptavidin sensors or plates through the biotin; also called synthetic peptide ligand representing a section of the human EMPD; model peptide; source: synthetic peptide; bought: Fisher Scientific
T1 chain: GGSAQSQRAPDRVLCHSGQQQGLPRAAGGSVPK

B1: quilizumab (antibody, V domains shown)
VH: EVQLVESGGGLVQPGGSLRLSCAASGFTFSDYGIAWVRQAPGKGLEWVAFISDLAYTIYYADTVTGRFTISRDNSKNTLYLQMNSLRAEDTAVYYCARDNWDAMDYWGQGTLVTVSS
VL: DIQMTQSPSSLSASVGDRVTITCRSSQSLVHNNANTYLHWYQQKPGKAPKLLIYKVSNRFSGVPSRFSGSGSGTDFTLTISSLQPEDFATYYCSQNTLVPWTFGQGTKVEIK
B2: ligelizumab (antibody, V domains shown)
VH: QVQLVQSGAEVMKPGSSVKVSCKASGYTFSWYWLEWVRQAPGHGLEWMGEIDPGTFTTNYNEKFKARVTFTADTSTSTAYMELSSLRSEDTAVYYCARFSHFSGSNYDYFDYWGQGTLVTVSS
VL: EIVMTQSPATLSVSPGERATLSCRASQSIGTNIHWYQQKPGQAPRLLIYYASESISGIPARFSGSGSGTEFTLTISSLQSEDFAVYYCQQSWSWPTTFGGGTKVEIK
notes: whole heavy chain, IgG1 format; whole light chain; IgG1; made in house; source: HEK293-6E, transfected, purified from supernatant (Protein A)
B3: 15cl12, chimeric antibody with human constant domains (antibody, V domains shown)
VH: QIQLQQSGAELVKPGASVKLSCKASGYTFTSYDINWVRQRPERGLDWIGWIFPGDGSSKYNENFKGKATLTTDKSSNTAYIHLSRLTSEDSAVYFCARWGKTFDYWGQGTTLTVSS
VL: DIVMSQSPSSLAVSVGEKVTMSCKSSQSLLYSRDQKNYLAWFQQKPGQSPKLLIYWASARESGVPDRFTGSGSGTDFTLTITSLKTEDLAVYYCQQFYNYPRTFGGGTKLEIK
B4: 15cl12_L328C coupled with MC-Val-Cit-PAB-MMAE (antibody-drug conjugate) (antibody, V domains shown)
VH: B3 VH
VL: B3 VL

Assays:
[1] = target: T2, IgE-Fc-B-cell receptor construct (3×FLAG tag-Cε2-Cε3-Cε4-EMPD-transmembrane-intracellular domain) on Edox … (Homo sapiens, UniProt P01854, strain); experiment: cell-based or functional assay
Target sequence in this assay (P01854 whole entry, looked up, change not shown, the tested form may be a part): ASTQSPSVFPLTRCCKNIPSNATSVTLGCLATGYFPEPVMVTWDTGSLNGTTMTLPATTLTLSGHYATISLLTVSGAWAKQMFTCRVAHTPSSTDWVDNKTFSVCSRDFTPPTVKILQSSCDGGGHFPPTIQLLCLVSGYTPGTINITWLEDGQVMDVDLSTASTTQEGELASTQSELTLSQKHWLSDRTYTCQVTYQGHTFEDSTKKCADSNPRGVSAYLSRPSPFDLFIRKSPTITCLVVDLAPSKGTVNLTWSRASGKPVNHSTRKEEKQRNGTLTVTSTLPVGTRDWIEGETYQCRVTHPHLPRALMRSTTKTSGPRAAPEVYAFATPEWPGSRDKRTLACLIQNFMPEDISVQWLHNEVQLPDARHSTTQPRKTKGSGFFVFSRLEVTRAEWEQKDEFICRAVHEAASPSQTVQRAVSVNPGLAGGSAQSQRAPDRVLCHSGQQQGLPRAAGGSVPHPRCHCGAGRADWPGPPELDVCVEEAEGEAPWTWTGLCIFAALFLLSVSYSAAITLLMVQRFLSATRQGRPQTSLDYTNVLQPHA

[2] = target: T2, IgE-Fc-B-cell receptor construct …; experiment: flow cytometry on cells; doxycycline-induced Edox cells, antibodies in graded concentrations, 30 min on ice in 2% BSA-PBS; detection with anti-human kappa light chain-FITC; conditions: one partner purified
Target sequence in this assay (P01854 429-546, change not shown): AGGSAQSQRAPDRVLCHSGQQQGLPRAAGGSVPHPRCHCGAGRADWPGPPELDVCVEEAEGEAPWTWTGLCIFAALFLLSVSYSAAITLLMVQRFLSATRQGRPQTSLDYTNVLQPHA

[3] = target: T1, biotinylated EMPD-characteristic peptide; experiment: BLI; biotinylated EMPD peptide on streptavidin sensors (5 µg/mL); antibodies in two-fold dilutions from 250 nM; PBS with 1× Kinetics buffer, 25 °C; steady state value; conditions: both partners purified
[4] = target: T1, biotinylated EMPD-characteristic peptide; experiment: ELISA; biotinylated EMPD peptide on streptavidin plate (30 nM); antibodies in 3-fold dilutions from 45 nM in 2% BSA-PBS, RT; detection with anti-human kappa chain-HRP; conditions: both partners purified

Binder | decrease of surface Fcε (anti-FLAG staining, flow cytometry) on Edox cells after 4 h at 37 °C against incubation on ice [1] [%] | EC50 [2] [nM] | Kd [3] [nM] | EC50 [4] [nM]
B1 | ~70 | – | – | –
B2 | > 80 | ~0.1 | – | –
B3 | > 80 | 4 | 11 | –
B4 | – | ~8 | 7.5 | 0.23
